Conditions in all cases: EMSA: 1 nM probe, 1 mM Tris-HCl pH 7.5, 0.1 mM EDTA, 0.2 mM DTT, 5 mM MgCl2, 10 mM KCl, 20 min 37 C; PhoP with 0.1 M acetyl phosphate; footprinting DNase I …
Background: Mobility shift assays separate free from complexed probe on a gel.

For series [1], the target named is T1, PhoP (Escherichia coli O157:H7 (EHEC; strain EDL933?)) (UniProt Q8X738).
T1 sequence: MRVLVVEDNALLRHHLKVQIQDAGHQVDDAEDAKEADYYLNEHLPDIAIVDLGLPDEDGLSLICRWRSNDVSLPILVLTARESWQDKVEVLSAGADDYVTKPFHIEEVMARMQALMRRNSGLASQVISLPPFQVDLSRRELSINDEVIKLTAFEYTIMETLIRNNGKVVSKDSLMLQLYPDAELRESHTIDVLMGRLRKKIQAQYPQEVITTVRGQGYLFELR
Kind of series: EMSA.

Series [2] has as its system T2, LmiA (Z4267) (Escherichia coli O157:H7 (EHEC; strain EDL933?)), ORF:92023632.
T2 sequence: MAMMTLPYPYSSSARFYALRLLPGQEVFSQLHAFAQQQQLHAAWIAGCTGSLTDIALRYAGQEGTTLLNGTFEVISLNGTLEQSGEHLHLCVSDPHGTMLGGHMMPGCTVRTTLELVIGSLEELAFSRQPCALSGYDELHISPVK
Kind of series: EMSA.

The target in series [3] is T1, PhoP (Escherichia coli O157:H7 (EHEC; strain EDL933?)). Kind of series: competition.

“AATATGGGTAGGGCAATGTCATCATTGGAGTACTCCGAAACTCGGACGTATTACGGATAATATCGACGCTGCATCAGTCATATTCTGATATAAGTCAGGGTTTGTGACGGCACAACGAAAAGATTTTGCTACGCTTATTCGTGATTCTGCAAAGTGGAATAAATTCCACAGGGGCGGGGCTGAGTTGGTGACGAGGGTCAGATAATTGTTTTCTTTGACTGGAC (double strand) [PlmiA-2]”: the binding result in series [1] was “no binding”.

On to “AGATTCATCTGCAGGCTCTGAAGTAAGTATACGTGTGAATATTATTGCTTGAAAAAGCGTATTGGATAATATATACAGTATATGTACTTTATGTACATTGCAACTATTTAAATAATATAATAGTTGCCTATGGGATAATTTGGTTATTTATAACCAGGTAAATGTCTAAATTAGACAAAAGGAGAAAGATCAATGGAAGCAGCAAATTTAAGTCCTTCTGGTGCAGTAATG (double strand) [PLEE2/3]”, for which the binding result in series [2] was “no binding”.

With “CATTAGCCATTGGAAACTCACGTAATCATTAATTATGAATATTCCATTAAATAGTACTGTACAACAGCTTCCTTTCTACTCTATTCTTAGACGATGTAAGTTCACCATATTTTTTCTCATTGTTCAACCACCAGGATGAATAAAATTTAAAAATGTTATCCTCATATAAAATAAAACTTCTCAATGGTGCGATGCG (double strand) [PLEE4]”, the binding result in series [2] is reported as “no binding”.

As for “GTCCAGTCAAAGAAAACAATTATCTCAGCCCCGCCCCTGTGGAATTTATTCCACTTTGCAGAATCACGAATAAGCGTAGCAAAATCTTTTCGTTGTGCCGTCACAAACCCTGACTTATATCAGAATATGACTGATGCAGCGTCGATATTATCCGTAATACGTCCGAGTTTCGGAGTACTCCAATGATGACATTGCCCTACCCATATT (double strand) [PlmiA-1]”, the binding result in series [1] is “no binding”.

In the case of “GTCCAGTCAAAGAAAACAATTATCTGACTTACGTCACGTTTTCAGCCCCGCCCCTGTGGAATTTATTCCACTTTGCAGAATCACGAATAAGCGTAGCAAAATCTTTTCGTTGTGCCGTCACAAACCCTGACTTATATCAGAATATGACTGATGCAGCGTCGATATTATCCGTAATACGTCCGAGTTTCGGAGTACTCCAATGATGACATTGCCCTACCCATATT (double strand) [PlmiA unlabeled competitor]”, in series [3], the binding result is on record as “binds”.

Take “GTCCAGTCAAAGAAAACAATTATCTGACTTACGTCACGTTTTCAGCCCCGCCCCTGTGGAATTTATTCCACTTTGCAGAATCACGAATAAGCGTAGCAAAATCTTTTCGTTGTGCCGTCACAAACCCTGACTTATATCAGAATATGACTGATGCAGCGTCGATATTATCCGTAATACGTCCGAGTTTCGGAGTACTCCAATGATGACATTGCCCTACCCATATT (double strand) [PlmiA]”: the binding result in series [1] was “binds”.

Values taken from publication PMC7667037.
